Laboratory results taken from patent publication US7288256B1, “T cell epitopes of the major allergens from dermatophagoides (house dust mite)” (Merck Patent GmbH, priority 1991, dated 2007).
Values belong to the molecule of their own block, whether it stands above or below them.

Experiments:
human IgE = test: Direct binding ELISA of IgE to mite allergen proteins and peptides (Examples XIII, XV)
Description: Corning assay plates (#25882-96) were coated with 5 μg/ml of each coating antigen listed in FIGS. 19, 20 and 21 at […] and incubated overnight at 4° C. The coating antigens were removed and the wells are blocked with 0.5% gelatin in PBS, 300 μl/well for 2 hours at room temperature. […] Louis, Mo.) and 100 μl/well a\was added and incubated overnight at 4° C. (plasma dilutions were tested in duplicate). The second antibody (biotinylated goat anti-Human IgE, 1:1000, Kirkegaard & Perry Laboratories Inc, Gaithersburg, Md.), was added at 100 μl/well for one hour at room temperature. This solution was removed and streptavidin-HRPO, 1:10000, (Southern Biotechnology Associates, Inc., Birmingham, Ala.) was then added at 100 μl/well for one hour at room temperature (all wells are washed three times with PBS-Tween between each incubation step). TMB Membrane Peroxidase Substrate system (Kirkegaard & Perry Laboratories) was freshly miced, and added at […]. The color was allowed to develop for 2-5 minutes. The reaction was stopped by the addition of […] of 1M phosphoric acid. Plates were read on a Microplate IL310 Autoreader (Biotech Instruments, Winooski, Vt.) with a 450 nm filter. The absorbance levels of duplicate wells were averaged. The order of coating antigens listed vertically in these figure legends corresponds in […] from left to right to the coating antigens listed for each histogram.

[1] = system: PBMC from mite-allergic patient; test: Primary PBMC proliferation (3H-thymidine) to Der p I/Der p II proteins and peptides, Example IV; assay type: cell-based, human; conditions: for CPM ± S.D.: 7 days culture; for S.I.: CPM with antigen / CPM medium only
Description: Peripheral blood mononuclear cells (PBMC) were purified by Ficoll-Hypaque centrifugation of a peripheral blood specimen from mite-allergic patient and were assayed for proliferation in response to various antigens, i.e., affinity-purified Der p I, affinity purified […], various Der p I and Der p II peptides. For assay, 5×10^4 PBMC were cultured in triplicate microwells for 7 days at 37° C. in the presence of various concentrations of antigen in 200 μl RPMI-1640 containing 5% human AB serum. Each well then received 1 μCi tritiated thymidine for 16 hours. The counts incorporated were collected onto glass fiber filters and processed for liquid scintillation counting. […] The CPM+/− standard deviation are shown. The stimulation index of each response (S.I.) is the ratio of the ^3H-thymidine CPM incorporated by the cells in response to antigen divided by the ^3H-thymidine CPM incorporated by cells in medium only. […] Thus, these peptides contain Der p I or Der p II T cell epitopes recognized by T cells from this particular allergic patient.

[2] = pooled human plasma from 20 mite skin test positive patients, coating antigen 5 μg/ml, FIGS. 19-21
[3] = plasma from 19 mite-allergic patients and a pool of 18 additional patients, Example XV

B2: Der p I: Group I protein allergen of Dermatophagoides pteronyssinus, immunoaffinity purified native form (protein)
chain: TNACSINGNAPAEIDLRQMRTVTPIRMQGGCGSCWAFSGVAATESAYLAHRNQSLDLAEQELVDCASQHGCHGDTIPRGIEYIQHNGVVQESYYRYVAREQSCRRPNAQRFGISNYCQIYPPNANKIREALAQTHSAIAVIIGIKDLDAFRHYDGRTIIQRDNGYQPNYHAVNIVGYSNAQGVDYWIVRNSWDTNWGDNGYGYFAANIDLMMIEEYPYVVIL
CPM ± S.D. ([1]; antigen 10 μg/ml): 920 ± 15 CPM
S.I. ([1]; antigen 10 μg/ml): 0.9
CPM ± S.D. ([1]; antigen 30 μg/ml): 2122 ± 93 CPM
S.I. ([1]; antigen 30 μg/ml): 2.0
CPM ± S.D. ([1]; antigen 100 μg/ml): 1492 ± 13 CPM
S.I. ([1]; antigen 100 μg/ml): 1.4
IgE binding in direct ELISA (human IgE; [3]): All samples did contain IgE

B3: Der p II: Group II protein allergen of Dermatophagoides pteronyssinus, immunoaffinity purified native form (protein)
chain: DQVDVKDCANHEIKKVLVPGCHGSEPCIIHRGKPFQLEAVFEANQNTKTAKIEIKASIDGLEVDVPGIDPNACHYMKCPLVKGQQYDIKYTWNVPKIAPKSENVVVTVKVMGDDGVLACAIATHAKIRD
CPM ± S.D. ([1]; antigen 10 μg/ml): 1113 ± 35 CPM
S.I. ([1]; antigen 10 μg/ml): 1.0
CPM ± S.D. ([1]; antigen 30 μg/ml): 2104 ± 43 CPM
S.I. ([1]; antigen 30 μg/ml): 2.0
CPM ± S.D. ([1]; antigen 100 μg/ml): 1057 ± 27 CPM
S.I. ([1]; antigen 100 μg/ml): 1.0
IgE binding in direct ELISA (human IgE; [3]): All samples did contain IgE
IgE binding in direct ELISA (human IgE; [2]): good binding

The remaining lines, values ahead:

IgE binding in direct ELISA (human IgE; [2]): binding
B1: recombinant Der f II: recombinant Der f II expressed in E. coli as His6 fusion (protein)
chain: MGHHHHHHEFDQVDVKDCANNEIKKVMVDGCHGSDPCIIHRGKPFTLEALFDANQNTKTAKTEIKASLDGLEIDVPGIDTNACHFMKCPLVKGQQYDAKYTWNVPKIAPKSENVVVTVKLVGDNGVLACAIATHAKIRD

IgE binding in direct ELISA (human IgE; [2]): binding
B4: biochemically purified Der f II: Group II protein allergen of Dermatophagoides farinae, immunoaffinity purified native form (protein)
chain: DQVDVKDCANNEIKKVMVDGCHGSDPCIIHRGKPFTLEALFDANQNTKTAKTEIKASLDGLEIDVPGIDTNACHFMKCPLVKGQQYDAKYTWNVPKIAPKSENVVVTVKLVGDNGVLACAIATHAKIRD
